Source: patent CN106928350A (TIANJIN INST IND BIOTECHNOLOGY CAS; SUZHOU GENEWIZ …, dated 2017)

Columns and labels:
[1] = biological target: T1, HA of H4 (A/duck/Czech/1956)/PR8 H4N1 (PR8-RS) (Influenza A virus A/duck/Czech/1956 (H4), UniProt P19696 17-564); assay: immunofluorescence on virus-infected MDCK cells, antibody 40μg/mL
T1 construct: whole, on cells

[2] = biological target: T2, HA of A/PuertoRico/8/1934 H1N1 (Influenza A virus A/PuertoRico/8/1934 …, UniProt P03452 18-565); assay: immunofluorescence on virus-infected MDCK cells
T2 construct: whole, on cells; also called PR8

B1: AF4H1K1 (antibody, V domains shown)
VH: QVQLVESGGGVVQPGTSLRLSCEASGFTSSAYAMHWVRQAPGKGLEWVAVITFDGGYQYYADSVKGRFTISRDISRNTLHLHMNSLRAEDTAVYYCARDPLTKLLPFDWVSGGYFDYWGQGTLVTVSS
VL: not shown
notes: also called AF4H1K1 IgG; AF4H1K1IgG
B1: binds [1]; no binding (tested: 40μg/mL) [2].
